We go through 4 molecules from patent publication US20200239549A1 (KM BIOLOGICS, published 2020).

The term Kd denotes the concentration at which binding is half-saturated.

First the molecules themselves.
B1: antibody D48 human-guinea pig chimeric IgG2κ (antibody, V domains shown)
VH: EVQLVETGGGVVRPGRSLRLSCTTSGFSFSGSAMHWVRQAPGKGLEWVAVISHDGNIIQYHDSVKGRFTISRDNSKNVLLLQMNSLRVDDTAMYYCARDVWLLPATISYAFDFWGQGTMVTVSS
VL: VIWMTQSPPSLSASIGDTVTITCRASQGISNSIAWYQRRPGKAPELLVYAAYRLQSGVPSRLSGSGSGAEYTLTIKNMQPEDFATYYCQQYYDNPLTFGGGTKVEIK
B2: antibody D48 scFv-hFc (Fc fusion, not shown: a dimerising Fc or GST)
scFv: EVQLVETGGGVVRPGRSLRLSCTTSGFSFSGSAMHWVRQAPGKGLEWVAVISHDGNIIQYHDSVKGRFTISRDNSKNVLLLQMNSLRVDDTAMYYCARDVWLLPATISYAFDFWGQGTMVTVSSASTGGGGSGGGGSGGGGSVIWMTQSPPSLSASIGDTVTITCRASQGISNSIAWYQRRPGKAPELLVYAAYRLQSGVPSRLSGSGSGAEYTLTIKNMQPEDFATYYCQQYYDNPLTFGGGTKVEIK
B3: antibody D48 human-murine chimeric IgG2a (antibody, V domains shown, not shown: a dimerising Fc or GST)
VH: B1 VH
VL: B1 VL
B4: antibody D48 Fab (Fab, V domains shown, not shown: small tags and cut ends; a dimerising Fc or GST)
VH: B1 VH
VL: B1 VL

The target in one assay is recombinant gB (gB1-705-strep), ectodomain of wild type gB of HSV-2 strain 333 (HSV-2 strain 333, UniProt P06763 23-727).
Experiment: not given
As to B1, the Kd stood at 0.76 nM.

The next assay deals with envelope glycoprotein B (gB) of HSV-1 strain KOS (HSV-1 strain KOS, UniProt P06437 31-904). The assay can be described thus: cell-based or functional assay.
For B2, the “50% plaque number-reducing activity” value was determined as 1 nM.
Regarding B1, the “50% plaque number-reducing activity” value is 0.94 nM.
Same read-out and setting: the result for B3 reads 1.9 nM; that for B4, 2.7 nM.

For the next assay, the target named is envelope glycoprotein B (gB) of HSV-2 strain MS (HSV-2 strain MS). The assay can be described thus: cell-based or functional assay.
Regarding B2, the “50% plaque number-reducing activity” value is 0.12 nM.
Still for that read-out and setting: the result for B1 reads 7.5 nM; that for B3, 1.6 nM; that for B4, 4.4 nM.
